Measurements: US20070293656A1, “COLLAGEN BINDING PEPTIDES” (Epix Pharmaceuticals, Inc., priority 2005, published 2007)
Bridge positions count the residues as written; N and C are the ends. Square brackets hold non-standard residues; d marks the D form. Primed or numbered codes have the meaning given here. Ends that are not written are not given here. Glu‑DTPA‑Gd = N-terminal Glu-DTPA-Gd chelate (gadolinium DTPA complex on glutamic acid); Glu‑DTPA‑Gd‑PEG(2O) = not defined here; Gd^T″ = GdDTPA-thiourea; AEEA = NCCOCCOCC(=O)O

target: rat collagen (acid soluble, type I, rat tail, Upstate 08-115) (rat) (UniProt P02454); assay: dried collagen assay
Sequence (P02454 152-1207 limits assumed, chain 1 of 2): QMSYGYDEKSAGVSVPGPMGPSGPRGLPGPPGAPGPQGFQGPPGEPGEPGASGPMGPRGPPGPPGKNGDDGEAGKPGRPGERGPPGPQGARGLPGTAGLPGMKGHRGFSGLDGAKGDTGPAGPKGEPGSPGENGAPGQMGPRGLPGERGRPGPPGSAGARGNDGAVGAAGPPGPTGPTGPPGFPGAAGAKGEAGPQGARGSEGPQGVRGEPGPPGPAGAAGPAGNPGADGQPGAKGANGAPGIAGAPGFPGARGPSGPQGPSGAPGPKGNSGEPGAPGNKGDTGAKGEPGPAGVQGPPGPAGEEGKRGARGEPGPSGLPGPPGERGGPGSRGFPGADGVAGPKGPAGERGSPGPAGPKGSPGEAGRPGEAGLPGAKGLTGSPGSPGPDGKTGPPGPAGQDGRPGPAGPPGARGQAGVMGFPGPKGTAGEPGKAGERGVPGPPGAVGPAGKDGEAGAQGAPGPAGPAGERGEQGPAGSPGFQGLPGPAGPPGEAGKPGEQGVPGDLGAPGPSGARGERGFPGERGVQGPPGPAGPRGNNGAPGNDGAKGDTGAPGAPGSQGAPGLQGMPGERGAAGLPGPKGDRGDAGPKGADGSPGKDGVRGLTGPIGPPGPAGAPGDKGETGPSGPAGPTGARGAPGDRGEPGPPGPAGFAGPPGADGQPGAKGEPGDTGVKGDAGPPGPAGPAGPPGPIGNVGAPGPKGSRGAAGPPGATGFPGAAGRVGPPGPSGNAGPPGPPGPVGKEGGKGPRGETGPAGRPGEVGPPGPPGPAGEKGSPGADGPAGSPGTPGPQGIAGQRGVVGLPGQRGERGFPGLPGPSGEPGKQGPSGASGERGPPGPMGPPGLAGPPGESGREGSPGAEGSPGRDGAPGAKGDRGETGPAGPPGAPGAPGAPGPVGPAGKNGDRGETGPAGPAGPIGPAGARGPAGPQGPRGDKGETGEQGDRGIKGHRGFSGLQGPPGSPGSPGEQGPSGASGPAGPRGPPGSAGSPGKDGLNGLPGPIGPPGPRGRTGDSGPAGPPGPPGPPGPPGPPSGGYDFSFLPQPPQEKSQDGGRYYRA
Sequence (P02466 86-1125 limits assumed, chain 2 of 2, further chain): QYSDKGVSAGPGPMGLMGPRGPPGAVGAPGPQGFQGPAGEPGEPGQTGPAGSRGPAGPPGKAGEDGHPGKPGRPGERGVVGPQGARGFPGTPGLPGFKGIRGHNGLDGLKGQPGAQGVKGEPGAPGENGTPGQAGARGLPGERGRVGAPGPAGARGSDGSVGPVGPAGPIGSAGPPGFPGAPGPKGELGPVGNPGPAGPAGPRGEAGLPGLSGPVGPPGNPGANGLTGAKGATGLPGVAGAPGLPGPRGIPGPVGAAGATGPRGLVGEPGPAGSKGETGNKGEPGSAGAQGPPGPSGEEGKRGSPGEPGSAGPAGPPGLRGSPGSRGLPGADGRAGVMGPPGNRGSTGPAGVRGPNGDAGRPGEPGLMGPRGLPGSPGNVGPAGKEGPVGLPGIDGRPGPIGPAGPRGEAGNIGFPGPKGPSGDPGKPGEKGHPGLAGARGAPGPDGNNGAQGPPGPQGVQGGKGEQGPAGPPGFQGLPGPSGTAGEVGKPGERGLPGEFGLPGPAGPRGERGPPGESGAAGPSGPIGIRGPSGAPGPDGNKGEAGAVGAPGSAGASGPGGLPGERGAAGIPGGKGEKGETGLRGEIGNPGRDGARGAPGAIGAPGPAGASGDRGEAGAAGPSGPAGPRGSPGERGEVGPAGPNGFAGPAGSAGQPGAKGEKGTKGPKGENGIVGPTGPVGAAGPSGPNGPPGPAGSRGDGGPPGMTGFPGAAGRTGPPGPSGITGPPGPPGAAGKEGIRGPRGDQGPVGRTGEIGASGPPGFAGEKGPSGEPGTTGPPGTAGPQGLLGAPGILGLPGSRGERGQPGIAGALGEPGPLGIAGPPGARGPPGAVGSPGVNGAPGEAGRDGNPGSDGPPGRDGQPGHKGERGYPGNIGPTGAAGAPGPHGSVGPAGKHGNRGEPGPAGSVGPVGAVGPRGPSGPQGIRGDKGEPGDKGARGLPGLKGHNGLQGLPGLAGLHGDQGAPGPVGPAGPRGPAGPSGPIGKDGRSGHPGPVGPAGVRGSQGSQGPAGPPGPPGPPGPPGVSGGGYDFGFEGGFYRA

Binder	% bound [%]
DWTCSGDEYRWHCNYE (not fully specified; Gd^T-DWTCSGDEYRWHCNYE) [Comp ID 845]	10
{Glu‑DTPA‑Gd}-WWGCRQGTGEHWSHCMWF-{AEEA-Glu‑DTPA‑Gd} (cysteine pairing not given here; also: Gd chelated by DTPA at each end) [SEQ ID NO: 195]	9
GQWTCSGDEYTWHCAYE (not fully specified; Gd^T-GQWTCSGDEYTWHCAYE) [Comp ID 839]	11

Next, values leading:

% bound [%]	Binder
5	{Glu‑DTPA‑Gd‑PEG(2O)}-GQWTCSGDEYTWHCNY[dE]-NH2 (disulfide 5-14 (inferred); reading uncertain) [Compound ID 1026]
12	{Glu‑DTPA‑Gd}-GGDWTCVGDHKTWKCNFH-NH2 (disulfide 6-15 (inferred)) [Compound ID 1023]

target: human collagen type I (acid soluble, extracted from placenta, Sigma C7774) (human) (UniProt P02452); assay: dried collagen assay
Sequence (P02452 162-1218 limits assumed, chain 1 of 2): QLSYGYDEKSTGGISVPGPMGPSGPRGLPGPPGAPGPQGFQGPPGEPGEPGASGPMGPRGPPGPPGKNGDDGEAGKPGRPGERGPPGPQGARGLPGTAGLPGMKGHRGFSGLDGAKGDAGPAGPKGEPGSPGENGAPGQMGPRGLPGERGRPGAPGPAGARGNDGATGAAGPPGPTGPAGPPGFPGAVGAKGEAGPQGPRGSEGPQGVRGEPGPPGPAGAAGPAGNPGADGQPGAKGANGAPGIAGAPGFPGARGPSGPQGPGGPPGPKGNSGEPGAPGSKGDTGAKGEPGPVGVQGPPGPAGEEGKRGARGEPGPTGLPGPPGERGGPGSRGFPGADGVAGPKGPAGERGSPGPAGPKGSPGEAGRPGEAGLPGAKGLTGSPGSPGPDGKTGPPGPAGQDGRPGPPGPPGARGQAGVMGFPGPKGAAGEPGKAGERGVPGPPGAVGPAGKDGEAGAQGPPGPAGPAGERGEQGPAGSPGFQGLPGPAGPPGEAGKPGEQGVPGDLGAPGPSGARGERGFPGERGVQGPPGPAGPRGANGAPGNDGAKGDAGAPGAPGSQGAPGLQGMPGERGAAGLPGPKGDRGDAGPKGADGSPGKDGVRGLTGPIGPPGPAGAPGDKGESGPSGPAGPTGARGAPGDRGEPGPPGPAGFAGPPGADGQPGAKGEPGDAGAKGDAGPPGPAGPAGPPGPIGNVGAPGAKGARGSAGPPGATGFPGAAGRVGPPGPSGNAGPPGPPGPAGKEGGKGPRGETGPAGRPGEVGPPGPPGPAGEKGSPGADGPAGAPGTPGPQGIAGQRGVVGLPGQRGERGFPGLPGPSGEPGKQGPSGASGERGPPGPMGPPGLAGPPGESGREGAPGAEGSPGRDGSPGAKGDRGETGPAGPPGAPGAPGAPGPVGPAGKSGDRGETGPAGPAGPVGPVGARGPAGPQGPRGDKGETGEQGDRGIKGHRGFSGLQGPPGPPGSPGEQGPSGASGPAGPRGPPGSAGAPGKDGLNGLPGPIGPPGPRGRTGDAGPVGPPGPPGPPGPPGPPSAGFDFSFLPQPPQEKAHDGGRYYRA
Sequence (P08123 80-1119 limits assumed, chain 2 of 2, further chain): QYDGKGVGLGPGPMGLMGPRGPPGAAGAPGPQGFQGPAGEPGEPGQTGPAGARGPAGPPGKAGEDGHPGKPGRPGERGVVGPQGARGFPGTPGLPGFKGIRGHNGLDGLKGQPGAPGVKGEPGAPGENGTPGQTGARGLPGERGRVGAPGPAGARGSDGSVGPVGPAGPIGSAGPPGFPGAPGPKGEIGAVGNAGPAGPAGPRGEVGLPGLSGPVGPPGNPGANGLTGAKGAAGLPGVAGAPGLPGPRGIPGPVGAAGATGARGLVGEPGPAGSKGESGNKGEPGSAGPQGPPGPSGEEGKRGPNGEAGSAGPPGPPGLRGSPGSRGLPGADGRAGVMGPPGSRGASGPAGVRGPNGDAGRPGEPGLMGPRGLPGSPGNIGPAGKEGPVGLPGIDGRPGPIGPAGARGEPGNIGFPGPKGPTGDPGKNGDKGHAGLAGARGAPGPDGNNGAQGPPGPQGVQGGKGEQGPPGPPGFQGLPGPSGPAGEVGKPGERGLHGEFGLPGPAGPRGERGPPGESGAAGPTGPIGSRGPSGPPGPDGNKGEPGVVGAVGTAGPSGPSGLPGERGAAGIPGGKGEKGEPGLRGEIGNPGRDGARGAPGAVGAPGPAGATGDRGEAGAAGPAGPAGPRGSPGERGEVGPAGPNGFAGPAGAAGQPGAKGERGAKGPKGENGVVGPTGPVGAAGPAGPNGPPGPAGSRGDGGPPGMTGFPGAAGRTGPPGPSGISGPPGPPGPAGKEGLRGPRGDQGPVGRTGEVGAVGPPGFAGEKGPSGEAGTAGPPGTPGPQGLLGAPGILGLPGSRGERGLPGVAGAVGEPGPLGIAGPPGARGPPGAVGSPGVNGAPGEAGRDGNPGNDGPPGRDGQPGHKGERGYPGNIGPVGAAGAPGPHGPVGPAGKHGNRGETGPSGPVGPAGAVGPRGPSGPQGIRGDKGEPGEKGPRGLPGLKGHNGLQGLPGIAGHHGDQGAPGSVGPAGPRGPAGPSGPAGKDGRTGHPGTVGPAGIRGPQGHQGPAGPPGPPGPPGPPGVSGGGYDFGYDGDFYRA

Binder	% bound [%]
SWSCGGDHNAWKCQYS (disulfide 4-13 (inferred)) [SEQ ID NO: 36]	7
PWWCHEMPSMCFGF (disulfide 4-11 (inferred)) [SEQ ID NO: 3]	2
ERNCVLNDFRWTCGGD (disulfide 4-13 (inferred)) [SEQ ID NO: 75]	10
RWSCVLDADGWVCSDN (disulfide 4-13 (inferred)) [SEQ ID NO: 66]	6
GWSCHSMDMQWHCDFS (disulfide 4-13 (inferred)) [SEQ ID NO: 67]	5
GWQCFGASDWHCTWV (disulfide 4-12 (inferred)) [SEQ ID NO: 8]	9
SWHCFLENHHWMCSDH (disulfide 4-13 (inferred)) [SEQ ID NO: 68]	5
GQWHCTTRFPHHTCLYG (not fully specified; Gd^T-GQWHCTTRFPHHtCLYG) [Comp ID 905]	6
GWSCHGDAADWPCQWS (disulfide 4-13 (inferred)) [SEQ ID NO: 38]	6
WQVCADSPGVITYCYTY (disulfide 4-14 (inferred)) [SEQ ID NO: 98]	5
FSECVWVNAYQCEYF (disulfide 4-12 (inferred)) [SEQ ID NO: 113]	3
LWNCHGTDANWKCVLN (disulfide 4-13 (inferred)) [SEQ ID NO: 37]	7
GWQCSGDASVWNCDWI (disulfide 4-13 (inferred)) [SEQ ID NO: 39]	6
{Gd^T″}-GQWHCTTRFPHHYCLYG[dK](Gd^T″) (disulfide 5-14 (inferred)) [Comp ID 808]	25

Second part, the binder after the results:

% bound [%]	Binder
12	GWQCQGTDSLDWKCLYM (disulfide 4-14 (inferred)) [SEQ ID NO: 77]
27	GQWHCTTRFPHHYCAYG (not fully specified; Gd^T-GQWHCTTRFPHHYCAYG) [Comp ID 855]
7	GQWHCTTDYPHHYCLYG (not fully specified; Gd^T-GQWHCTTD-Y(3-Cl)-PHHYCLYG) [Comp ID 895]
8	TWACDLDEYGGWQCYTG (disulfide 4-14 (inferred)) [SEQ ID NO: 78]
8	FWTCELDFRQSWYCYDK (disulfide 4-14 (inferred)) [SEQ ID NO: 79]
7	GQWHCTTRFPHHRCLYG (not fully specified; Gd^T-GQWHCTTRFPHHrCLYG) [Comp ID 902]
7	KWECVHTKGEWYCETK (disulfide 4-13 (inferred)) [SEQ ID NO: 65]
20	{Gd^T″}-DWTCS[dY]DEYTWHCNYE (disulfide 4-13 (inferred)) [Comp ID 829]
8	GQWHCTTDFPHXYCLYG (not fully specified; Gd^T-GQWHCTTDFPH-Dpr-YCLYG) [Comp ID 886]
12	PWTCSGDEYAWHCNYE (Gd^G-PWTCSGDEYAWHCNYe) [Comp ID 824]
6	SWYCNNGSYGQWHCEHR (disulfide 4-14 (inferred)) [SEQ ID NO: 80]

target: T1, human collagen type I (acid soluble, extracted from placenta, Sigma C7774) (human, UniProt P02452 162-1218; P08123 80-1119); assay: dried collagen assay
T1 construct: gelled and dried as a fibril film in the assay; also called dried human collagen; h-Collagen
Method: An additional 90 μL is reserved in a HPLC glass vial as a measure of the total concentration.

T1 sequence (P02452 162-1218 limits assumed, chain 1 of 2): as the sequence (P02452 162-1218 limits assumed, chain 1 of 2) above
T1 sequence (P08123 80-1119 limits assumed, chain 2 of 2): as the sequence (P08123 80-1119 limits assumed, chain 2 of 2, further chain) above

Binder	% bound [%]
GWTCSQPGANVWNCTMQ (disulfide 4-14 (inferred)) [SEQ ID NO: 85]	3
RWTCDLQRGDWQCSTI (disulfide 4-13 (inferred)) [SEQ ID NO: 57]	11
SWYCDWDDRKGWMCGSD (disulfide 4-14 (inferred)) [SEQ ID NO: 86]	2
FGACDIFPTFHTCPGV (disulfide 4-13 (inferred)) [SEQ ID NO: 76]	1
HWQCRLTDYGWNCDER (disulfide 4-13 (inferred)) [SEQ ID NO: 59]	10
HWTCDQAKGGAWSCSST (disulfide 4-14 (inferred)) [SEQ ID NO: 87]	1
FWRCALLDGHWQCTDH (disulfide 4-13 (inferred)) [SEQ ID NO: 70]	3
MWNCTMTKSGWRCFEK (disulfide 4-13 (inferred)) [SEQ ID NO: 54]	12
GWVCMMRETDWNCSI (disulfide 4-13 (inferred)) [SEQ ID NO: 58]	10
EWHCVFIQGDWLCNSG (disulfide 4-13 (inferred)) [SEQ ID NO: 72]	1
SWHCALMGSRWVCGQN (disulfide 4-13 (inferred)) [SEQ ID NO: 71]	3
SWNCHWRNQGWLCSGG (disulfide 4-13 (inferred)) [SEQ ID NO: 55]	12
KWSCYMVDHQWYCREF (disulfide 4-13 (inferred)) [SEQ ID NO: 61]	9
HWSCDLAMDNEWFCSTK (disulfide 4-14 (inferred)) [SEQ ID NO: 84]	3
GWACNTTSKGDWECTNL (disulfide 4-14 (inferred)) [SEQ ID NO: 83]	3
EWHCVLNDFRWTCGGD (disulfide 4-13 (inferred)) [SEQ ID NO: 60]	10
SWNCHMIRNEWRCTGH (disulfide 4-13 (inferred)) [SEQ ID NO: 56]	11
HWSCYLGDNGWNCHDR (disulfide 4-13 (inferred)) [SEQ ID NO: 62]	9

Now from value to binder:

% bound [%]	Binder
1	SWHCALVENSWQCSEA (disulfide 4-13 (inferred)) [SEQ ID NO: 73]
8	NWYCSQALDNWSCKLR (disulfide 4-13 (inferred)) [SEQ ID NO: 63]
8	TWICSHNDKGWTCGDQ (disulfide 4-13 (inferred)) [SEQ ID NO: 64]
3	HWQCGEKMSFWSCELV (disulfide 4-13 (inferred)) [SEQ ID NO: 69]
12	GWFCKLVDGNWECSTK (disulfide 4-13 (inferred)) [SEQ ID NO: 53]
3	LWTCSMDRNYDWVCGEK (disulfide 4-14 (inferred)) [SEQ ID NO: 82]
3	QWFCEMDEYGKWNCGMM (disulfide 4-14 (inferred)) [SEQ ID NO: 81]
